This passage reports Km and kcat results from paper PMC5697884, “In vitro characterization of the antivirulence target of Gram-positive pathogens, peptidoglycan O-acetyltransferase A (OatA)” (PLoS Pathogens, 2017).

The test system of this series is CC(=O)Oc1ccc([N+](=O)[O-])cc1. Briefly: purified protein. The conditions noted are these: hydrolysis (esterase) without acceptor, 50 mM sodium phosphate pH 6.5, 5% (v/v) ethanol, 25 °C.

Regarding SpOatAC (Streptococcus pneumoniae R6), the Km turned out to be 56 ± 6.5 µM and the kcat stood at 0.016 ± 0.00039 s⁻¹.
The corresponding values for “SaOatAC (Staphylococcus aureus subsp. aureus NCTC 8325)” are 1150 ± 70 µM and 0.060 ± 0.00078 s⁻¹.

What is called Km is the concentration of substrate that gives half-maximal velocity. A word on the kcat: it is the maximal rate divided by the concentration of active sites.
